Laboratory results from US20170158755A1 (PROTHENA BIOSCIENCES, published 2017).

What was measured:
[1] = biological target: T1, human LAMA4 G domain (LG1-5) displayed on 293 cells (human, UniProt Q16363 830-1821); assay: flow cytometry on LAMA4-displaying 293 cells, anti-human-650 secondary antibody; MFI (binding experiment by paragraph 395 and by the plot; the legend paragraph 38 calls it blocking)
T1 construct: the vector's tags and membrane anchor are not written here; also called LAMA4-displaying human 293 cells; full length
T1 sequence: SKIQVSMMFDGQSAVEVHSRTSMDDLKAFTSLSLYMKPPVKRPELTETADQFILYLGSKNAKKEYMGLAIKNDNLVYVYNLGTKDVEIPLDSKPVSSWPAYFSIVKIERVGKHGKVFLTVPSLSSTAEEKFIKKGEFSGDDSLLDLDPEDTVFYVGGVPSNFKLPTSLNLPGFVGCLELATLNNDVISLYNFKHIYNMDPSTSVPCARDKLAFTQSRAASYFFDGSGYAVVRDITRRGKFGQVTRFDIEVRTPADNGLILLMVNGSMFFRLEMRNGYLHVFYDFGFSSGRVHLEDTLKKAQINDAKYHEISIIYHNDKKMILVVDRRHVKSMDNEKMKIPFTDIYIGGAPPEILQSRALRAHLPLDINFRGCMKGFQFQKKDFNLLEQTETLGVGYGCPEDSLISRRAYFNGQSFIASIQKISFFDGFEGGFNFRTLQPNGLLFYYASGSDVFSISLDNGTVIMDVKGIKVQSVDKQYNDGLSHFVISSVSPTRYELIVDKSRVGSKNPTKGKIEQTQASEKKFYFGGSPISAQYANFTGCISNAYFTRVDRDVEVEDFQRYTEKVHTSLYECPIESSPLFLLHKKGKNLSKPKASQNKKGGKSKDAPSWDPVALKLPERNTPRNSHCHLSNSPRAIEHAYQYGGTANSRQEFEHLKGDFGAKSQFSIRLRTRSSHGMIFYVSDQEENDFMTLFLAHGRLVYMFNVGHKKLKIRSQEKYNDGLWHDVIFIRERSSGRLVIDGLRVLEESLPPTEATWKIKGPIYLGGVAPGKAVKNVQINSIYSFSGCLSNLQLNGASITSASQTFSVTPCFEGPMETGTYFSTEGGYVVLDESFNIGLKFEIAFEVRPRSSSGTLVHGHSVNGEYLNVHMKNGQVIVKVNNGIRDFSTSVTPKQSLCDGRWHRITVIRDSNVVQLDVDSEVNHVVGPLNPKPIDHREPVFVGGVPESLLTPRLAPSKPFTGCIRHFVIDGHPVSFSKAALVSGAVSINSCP
Method: (§1) Position L49 of the 19C12 variable light chain was substituted with other amino acids, such as I, T, A, M, Q, or E (see Table 6) because they may confer improved stability relative to substitution to a cysteine. The 19C12 cysteine replacement variants were tested for their ability to bind LAMA4-displaying cells (FIG. 13) and to block the binding of LAMA4 to its ligand MCAM (FIG. 14). To test LAMA4 binding capacity, serially diluted antibodies were pre-incubated with LAMA4-displaying human 293 cells, followed by anti-human-650 secondary antibody incubation. […] Fluorescent signal was assessed via flow cytometric analyses and plotted as mean fluorescence intensity (MFI). The 19C12 cysteine replacement variants retain their MCAM blocking and LAMA4 binding activity to varying degrees.

recombinant laminin 411 = biological target: T2, recombinant laminin 411 (human, UniProt P07942 22-1786; P11047 34-1609, limits assumed); assay: flow cytometric blocking assay; antibody pre-incubated with 650-labeled laminin 411; blocked partner: human MCAM on CHO cells; MFI (blocking experiment by paragraph 395 and by the 411 / no 411 controls on the sheet; the legend paragraph 39 calls it binding)
T2 construct: also called LAMA4 in complex with its gamma1 and beta1 chains
Method: as §1

[2] = biological target: T3, mouse MCAM-Fc fusion protein (mouse; human, UniProt Q8R2Y2 24-563); assay: flow cytometry on 293 cells displaying LAMA4 G-domain variants; % binding
T3 construct: extracellular domain; Made in house; also called mMCAM-Fc; 650-conjugated mouse MCAM-Fc; not shown: human IgG1 (Fc part of the fusion)
T3 sequence (looked up): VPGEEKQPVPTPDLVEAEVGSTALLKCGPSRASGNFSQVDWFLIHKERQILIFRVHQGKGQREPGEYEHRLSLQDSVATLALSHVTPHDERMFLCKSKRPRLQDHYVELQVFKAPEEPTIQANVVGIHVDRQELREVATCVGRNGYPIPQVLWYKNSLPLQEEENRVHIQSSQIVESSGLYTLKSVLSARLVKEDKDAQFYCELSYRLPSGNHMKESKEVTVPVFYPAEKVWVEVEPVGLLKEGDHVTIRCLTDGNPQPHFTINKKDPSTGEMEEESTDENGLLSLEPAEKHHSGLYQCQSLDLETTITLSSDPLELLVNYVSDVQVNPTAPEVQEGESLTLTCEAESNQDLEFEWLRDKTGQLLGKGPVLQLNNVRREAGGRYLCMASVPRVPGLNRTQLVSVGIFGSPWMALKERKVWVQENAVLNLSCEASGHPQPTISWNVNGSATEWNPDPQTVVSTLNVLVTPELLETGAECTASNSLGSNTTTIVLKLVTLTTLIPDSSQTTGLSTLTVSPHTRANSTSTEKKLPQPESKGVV
Source text: LGde1 has a full-length G domain (i.e., LG1-5) with LG1 deleted, LGde2 has a full-length G domain with LG2 deleted, and LGde3 has a full-length G domain with LG3 deleted. Recombinant MCAM-Fc protein was able to specifically bind 293 cells expressing LAMA4 variants LG1-5, LG1-3, and LGde 1 (LG23), but not 293 cells expressing LAMA 4 variants LG4-5, LGde2 (LG13), or LGde3 (LG12).

[3] = biological target: T4, human MCAM-Fc fusion protein (human, UniProt P43121 24-559); assay: ELISA, MCAM-Fc captured via goat anti-human Fab
T4 construct: Made in house by fusing the extracellular domain of human MCAM to human IgG1, produced in CHO cells; also called hMCAM-Fc; not shown: human IgG1 (Fc part of the fusion)
T4 sequence: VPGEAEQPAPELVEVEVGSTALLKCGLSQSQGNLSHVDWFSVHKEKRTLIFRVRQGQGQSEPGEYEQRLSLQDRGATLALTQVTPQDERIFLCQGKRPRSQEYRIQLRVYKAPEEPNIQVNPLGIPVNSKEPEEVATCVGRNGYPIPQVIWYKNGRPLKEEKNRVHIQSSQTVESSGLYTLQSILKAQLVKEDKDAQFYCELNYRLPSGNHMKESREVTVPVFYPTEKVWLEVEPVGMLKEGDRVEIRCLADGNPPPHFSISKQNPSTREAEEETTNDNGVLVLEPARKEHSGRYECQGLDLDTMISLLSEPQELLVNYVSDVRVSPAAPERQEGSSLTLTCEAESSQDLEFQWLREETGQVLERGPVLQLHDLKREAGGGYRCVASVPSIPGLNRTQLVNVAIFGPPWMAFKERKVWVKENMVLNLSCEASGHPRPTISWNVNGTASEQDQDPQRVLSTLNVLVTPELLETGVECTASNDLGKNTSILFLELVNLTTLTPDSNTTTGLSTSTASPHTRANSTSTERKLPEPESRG
Method: To determine the LAMA4 epitope(s)/domain(s) necessary for MCAM binding, recombinant MCAM-Fc (or Fc control) protein was prebound to plates via goat anti-human Fabs overnight. Truncated recombinant variants of the LAMA4 G domain (and Tau control protein) were assayed for their ability to bind MCAM-Fc protein as described in the Materials and Methods and as shown in FIG. 6. The results are presented in arbitrary units (A.U.) on the y-axis. […] Therefore, the LG1-3 modules of the G domain of LAMA4 mediate LAMA4-MCAM interactions.

T2 sequence (chain, as listed by the source limits assumed, chain 1 of 3): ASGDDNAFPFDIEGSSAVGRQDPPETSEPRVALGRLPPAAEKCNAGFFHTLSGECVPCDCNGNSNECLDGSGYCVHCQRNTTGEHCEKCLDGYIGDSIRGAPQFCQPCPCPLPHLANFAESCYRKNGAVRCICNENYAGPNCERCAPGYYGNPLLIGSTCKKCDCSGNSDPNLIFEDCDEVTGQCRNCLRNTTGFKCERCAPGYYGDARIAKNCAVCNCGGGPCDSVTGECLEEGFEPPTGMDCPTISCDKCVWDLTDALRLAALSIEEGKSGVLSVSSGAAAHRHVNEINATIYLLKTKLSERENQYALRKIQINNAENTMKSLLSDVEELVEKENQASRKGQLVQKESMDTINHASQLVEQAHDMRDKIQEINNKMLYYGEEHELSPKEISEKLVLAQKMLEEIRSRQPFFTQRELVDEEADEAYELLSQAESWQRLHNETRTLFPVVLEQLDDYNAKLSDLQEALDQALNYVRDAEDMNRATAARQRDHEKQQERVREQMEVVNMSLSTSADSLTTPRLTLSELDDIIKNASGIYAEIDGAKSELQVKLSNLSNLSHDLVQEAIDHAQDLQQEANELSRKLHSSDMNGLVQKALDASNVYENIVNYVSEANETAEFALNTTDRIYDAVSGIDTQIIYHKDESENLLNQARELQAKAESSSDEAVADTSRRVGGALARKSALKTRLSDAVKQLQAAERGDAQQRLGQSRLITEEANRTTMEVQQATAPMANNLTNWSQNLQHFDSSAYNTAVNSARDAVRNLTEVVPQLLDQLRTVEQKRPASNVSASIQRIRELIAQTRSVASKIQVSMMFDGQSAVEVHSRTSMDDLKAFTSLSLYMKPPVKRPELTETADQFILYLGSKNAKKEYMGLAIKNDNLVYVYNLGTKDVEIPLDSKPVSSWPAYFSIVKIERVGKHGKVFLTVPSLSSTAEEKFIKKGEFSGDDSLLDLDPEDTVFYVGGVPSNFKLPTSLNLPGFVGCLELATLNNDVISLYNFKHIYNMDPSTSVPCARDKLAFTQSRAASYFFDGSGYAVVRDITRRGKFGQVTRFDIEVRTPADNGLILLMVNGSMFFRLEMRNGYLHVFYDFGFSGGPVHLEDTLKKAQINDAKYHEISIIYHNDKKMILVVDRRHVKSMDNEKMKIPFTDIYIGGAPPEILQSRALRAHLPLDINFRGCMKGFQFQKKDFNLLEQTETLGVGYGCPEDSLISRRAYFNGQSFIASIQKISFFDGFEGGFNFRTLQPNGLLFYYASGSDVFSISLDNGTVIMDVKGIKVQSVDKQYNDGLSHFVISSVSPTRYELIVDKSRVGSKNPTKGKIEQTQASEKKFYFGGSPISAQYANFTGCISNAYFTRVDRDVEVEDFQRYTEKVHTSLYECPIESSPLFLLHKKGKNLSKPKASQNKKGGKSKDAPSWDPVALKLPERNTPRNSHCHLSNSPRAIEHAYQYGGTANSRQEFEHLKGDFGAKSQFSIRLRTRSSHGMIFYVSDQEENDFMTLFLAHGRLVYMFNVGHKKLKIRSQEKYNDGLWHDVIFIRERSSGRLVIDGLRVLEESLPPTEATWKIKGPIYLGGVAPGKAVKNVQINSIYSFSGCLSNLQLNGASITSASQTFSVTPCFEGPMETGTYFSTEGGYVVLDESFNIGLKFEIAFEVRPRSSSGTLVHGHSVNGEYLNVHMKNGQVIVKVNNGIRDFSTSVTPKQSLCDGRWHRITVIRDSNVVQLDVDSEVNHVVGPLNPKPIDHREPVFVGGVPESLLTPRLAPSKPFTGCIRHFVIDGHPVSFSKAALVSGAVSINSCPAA
T2 sequence (P07942 22-1786 limits assumed, chain 2 of 3): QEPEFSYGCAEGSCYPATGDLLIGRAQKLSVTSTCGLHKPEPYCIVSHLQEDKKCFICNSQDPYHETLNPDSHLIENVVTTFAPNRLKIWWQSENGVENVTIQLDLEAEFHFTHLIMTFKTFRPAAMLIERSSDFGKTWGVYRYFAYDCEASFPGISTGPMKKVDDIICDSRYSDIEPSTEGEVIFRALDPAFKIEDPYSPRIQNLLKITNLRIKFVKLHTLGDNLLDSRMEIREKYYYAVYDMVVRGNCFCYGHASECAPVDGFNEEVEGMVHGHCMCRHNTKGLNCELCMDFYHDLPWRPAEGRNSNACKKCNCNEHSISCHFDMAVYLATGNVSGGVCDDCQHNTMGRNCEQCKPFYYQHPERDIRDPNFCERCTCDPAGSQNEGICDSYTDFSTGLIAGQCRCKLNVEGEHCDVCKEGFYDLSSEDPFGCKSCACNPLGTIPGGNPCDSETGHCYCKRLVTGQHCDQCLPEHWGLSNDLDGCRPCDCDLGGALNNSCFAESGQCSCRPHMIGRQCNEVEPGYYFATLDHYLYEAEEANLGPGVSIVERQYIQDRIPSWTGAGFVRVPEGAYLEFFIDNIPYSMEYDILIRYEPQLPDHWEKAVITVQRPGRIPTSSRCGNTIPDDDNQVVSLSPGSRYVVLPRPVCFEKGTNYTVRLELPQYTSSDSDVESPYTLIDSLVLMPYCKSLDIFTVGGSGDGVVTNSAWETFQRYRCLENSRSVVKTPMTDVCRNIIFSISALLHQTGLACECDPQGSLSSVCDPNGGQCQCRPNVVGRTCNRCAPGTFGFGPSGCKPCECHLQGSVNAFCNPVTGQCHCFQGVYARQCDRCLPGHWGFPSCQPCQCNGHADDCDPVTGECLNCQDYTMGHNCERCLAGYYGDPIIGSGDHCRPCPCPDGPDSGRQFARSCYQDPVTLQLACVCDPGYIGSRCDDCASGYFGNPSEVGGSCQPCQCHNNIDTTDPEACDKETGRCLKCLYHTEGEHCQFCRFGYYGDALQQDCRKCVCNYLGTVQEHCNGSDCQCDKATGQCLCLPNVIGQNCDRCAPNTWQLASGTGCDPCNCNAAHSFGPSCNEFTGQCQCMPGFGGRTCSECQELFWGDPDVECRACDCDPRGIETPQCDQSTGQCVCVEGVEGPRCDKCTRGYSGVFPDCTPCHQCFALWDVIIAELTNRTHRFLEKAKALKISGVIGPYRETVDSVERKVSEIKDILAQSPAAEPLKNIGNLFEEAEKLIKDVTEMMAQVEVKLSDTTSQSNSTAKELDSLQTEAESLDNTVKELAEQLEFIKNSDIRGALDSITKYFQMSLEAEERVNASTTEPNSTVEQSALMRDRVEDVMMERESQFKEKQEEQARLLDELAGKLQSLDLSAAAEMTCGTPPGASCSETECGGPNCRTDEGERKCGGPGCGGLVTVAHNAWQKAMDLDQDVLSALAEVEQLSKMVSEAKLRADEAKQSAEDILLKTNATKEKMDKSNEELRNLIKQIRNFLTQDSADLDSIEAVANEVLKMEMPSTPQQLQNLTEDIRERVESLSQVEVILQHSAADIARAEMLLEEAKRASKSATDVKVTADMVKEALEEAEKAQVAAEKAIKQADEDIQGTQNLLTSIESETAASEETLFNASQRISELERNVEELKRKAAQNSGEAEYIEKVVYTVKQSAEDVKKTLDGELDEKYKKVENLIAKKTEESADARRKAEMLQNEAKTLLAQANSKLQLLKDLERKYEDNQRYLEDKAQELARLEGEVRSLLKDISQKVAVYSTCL
T2 sequence (P11047 34-1609 limits assumed, chain 3 of 3): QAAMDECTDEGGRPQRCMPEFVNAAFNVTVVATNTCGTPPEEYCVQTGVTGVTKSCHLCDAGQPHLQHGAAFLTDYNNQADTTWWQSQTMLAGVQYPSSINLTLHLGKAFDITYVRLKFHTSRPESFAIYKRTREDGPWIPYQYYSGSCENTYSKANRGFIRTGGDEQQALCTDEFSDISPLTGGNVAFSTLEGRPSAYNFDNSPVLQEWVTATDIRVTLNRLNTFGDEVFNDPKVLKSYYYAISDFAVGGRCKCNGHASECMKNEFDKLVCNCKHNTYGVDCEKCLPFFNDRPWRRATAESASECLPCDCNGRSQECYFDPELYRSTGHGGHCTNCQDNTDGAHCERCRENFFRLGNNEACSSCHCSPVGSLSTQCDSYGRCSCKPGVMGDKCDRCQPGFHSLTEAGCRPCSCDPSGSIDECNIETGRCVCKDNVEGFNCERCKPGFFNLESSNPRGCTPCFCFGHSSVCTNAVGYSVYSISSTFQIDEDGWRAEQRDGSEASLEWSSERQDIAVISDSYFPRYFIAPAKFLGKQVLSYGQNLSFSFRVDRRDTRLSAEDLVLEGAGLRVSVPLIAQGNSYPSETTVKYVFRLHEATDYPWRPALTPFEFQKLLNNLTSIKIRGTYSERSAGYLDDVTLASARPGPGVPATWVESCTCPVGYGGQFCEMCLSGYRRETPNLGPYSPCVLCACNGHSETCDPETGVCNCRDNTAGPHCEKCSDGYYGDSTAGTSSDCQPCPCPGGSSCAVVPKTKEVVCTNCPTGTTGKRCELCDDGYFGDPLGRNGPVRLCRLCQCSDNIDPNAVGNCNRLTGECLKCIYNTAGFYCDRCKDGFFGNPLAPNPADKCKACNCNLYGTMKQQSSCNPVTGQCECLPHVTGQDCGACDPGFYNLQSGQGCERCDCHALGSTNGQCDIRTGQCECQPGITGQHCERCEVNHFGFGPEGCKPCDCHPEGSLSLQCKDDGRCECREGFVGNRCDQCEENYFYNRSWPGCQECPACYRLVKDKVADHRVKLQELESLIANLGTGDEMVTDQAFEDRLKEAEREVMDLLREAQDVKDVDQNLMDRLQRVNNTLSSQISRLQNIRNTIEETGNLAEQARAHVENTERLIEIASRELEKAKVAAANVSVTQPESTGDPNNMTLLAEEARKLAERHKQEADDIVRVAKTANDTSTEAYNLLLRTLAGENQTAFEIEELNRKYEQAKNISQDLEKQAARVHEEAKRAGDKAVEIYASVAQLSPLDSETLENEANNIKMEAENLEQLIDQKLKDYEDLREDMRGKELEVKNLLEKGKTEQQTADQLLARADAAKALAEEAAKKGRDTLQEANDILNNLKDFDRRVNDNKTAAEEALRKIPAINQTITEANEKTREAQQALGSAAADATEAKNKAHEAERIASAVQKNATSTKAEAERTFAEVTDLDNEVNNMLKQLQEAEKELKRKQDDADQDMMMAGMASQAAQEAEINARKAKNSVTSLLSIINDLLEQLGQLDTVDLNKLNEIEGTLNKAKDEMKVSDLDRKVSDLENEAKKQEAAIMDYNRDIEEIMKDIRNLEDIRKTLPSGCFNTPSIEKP

B1: H2L5 (antibody, V domains shown)
VH: QVQLQQSGAELVKPGASVKVSCKASGYAFSTYWMNWVRQAPGQGLEWIGQIYPGDGDTNYNGKFKGRVTITADKSTSTAYMELSSLRSEDTAVYFCARSDGYYDYWGQGTTVTVSS
VL: DIVLTQSPASLAVSLGERATISCRASESVDSYGTSFMHWYQQKPGQPPKLLISLASSLESGVPARFSGSGSGTDFTLTISPLQAEDVATYYCQQNNEDPPTFGQGTKLEIK
notes: also called VHv2/VLv5; humanized 19C12 antibody H2L5; copies: 2 + 2
binding result [1]: binds

B2: H3L3 (antibody, V domains shown)
VH: EVQLQQSGAELVKPGASVKVSCKASGYAFSTYWMNWVRQAPGQGLEWIGQIYPGDGDTNYNGKFKGRVTITADKSTSTAYMELSSLRSEDTAVYFCARSDGYYDYWGQGTTVTVSS
VL: NIVLTQSPASLAVSLGERATISCRASESVDSYGTSFMHWYQQKPGQPPKLLICLASSLESGVPARFSGSGSRTDFTLTIDPVEAEDAATYYCQQNNEDPPTFGAGTKLEIK
notes: also called VHv3/VLv3; humanized 19C12 antibody H3L3; copies: 2 + 2
binding result (recombinant laminin 411): binds
binding result [1]: binds

B3: human LAMA4 LG4-5 modules displayed on 293 cells (ligand)
chain: RNSHCHLSNSPRAIEHAYQYGGTANSRQEFEHLKGDFGAKSQFSIRLRTRSSHGMIFYVSDQEENDFMTLFLAHGRLVYMFNVGHKKLKIRSQEKYNDGLWHDVIFIRERSSGRLVIDGLRVLEESLPPTEATWKIKGPIYLGGVAPGKAVKNVQINSIYSFSGCLSNLQLNGASITSASQTFSVTPCFEGPMETGTYFSTEGGYVVLDESFNIGLKFEIAFEVRPRSSSGTLVHGHSVNGEYLNVHMKNGQVIVKVNNGIRDFSTSVTPKQSLCDGRWHRITVIRDSNVVQLDVDSEVNHVVGPLNPKPIDHREPVFVGGVPESLLTPRLAPSKPFTGCIRHFVIDGHPVSFSKAALVSGAVSINSCP
notes: pDisplay construct on 293 cells; vector tags and anchor not written here
binding result [2]: no binding

B4: His-tagged recombinant LAMA4 G-domain variant with LG modules 4-5 (ligand)
chain: RNSHCHLSNSPRAIEHAYQYGGTANSRQEFEHLKGDFGAKSQFSIRLRTRSSHGMIFYVSDQEENDFMTLFLAHGRLVYMFNVGHKKLKIRSQEKYNDGLWHDVIFIRERSSGRLVIDGLRVLEESLPPTEATWKIKGPIYLGGVAPGKAVKNVQINSIYSFSGCLSNLQLNGASITSASQTFSVTPCFEGPMETGTYFSTEGGYVVLDESFNIGLKFEIAFEVRPRSSSGTLVHGHSVNGEYLNVHMKNGQVIVKVNNGIRDFSTSVTPKQSLCDGRWHRITVIRDSNVVQLDVDSEVNHVVGPLNPKPIDHREPVFVGGVPESLLTPRLAPSKPFTGCIRHFVIDGHPVSFSKAALVSGAVSINSCP
notes: also called LAMA4 variant containing the LG modules 4-5; LG4-5
binding result [3]: no binding
